From patent US20120058953A1, “COMPOSITIONS AND METHODS FOR ENHANCING APOPTOSIS” (Genentech, Inc., priority 2003, published 2012)
Where two headings read alike, the source gives them in different places. Non-standard residues stand in square brackets, D forms with d. No end group written: not given here. Phe(4-SO3H) = N[C@@H](Cc1ccc(S(=O)(=O)O)cc1)C(=O)O; Phe(4-I) = N[C@@H](Cc1ccc(I)cc1)C(=O)O

Legend:
ML-IAP-BIR [1] = molecular target: T1, ML-IAP-BIR (Homo sapiens, UniProt Q96CA5); test: fluorescence polarization competition assay, ML-IAP-BIR; format: binding
T1 construct: made in house; host or cells: Escherichia coli BL21 (DE3)
T1 sequence (Q96CA5 63-179): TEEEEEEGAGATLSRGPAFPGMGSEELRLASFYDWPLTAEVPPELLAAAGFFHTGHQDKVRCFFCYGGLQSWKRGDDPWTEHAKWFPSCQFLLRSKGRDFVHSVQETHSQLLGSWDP
Experimental: (§1) The apparent Kd values can be determined from the EC50 values.
(§2) The vectors pET15b-XIAPBIR2C202AC218G, pET15b-XIAPBIR3, and pET15b-MLIAPBIR were introduced into Escherichia coli strain BL21 (DE3). Overnight cultures were diluted 1:100 and grown at 30° C. in LB media with […] to an A600 of 0.5-0.7 with vigorous shaking. Isopropyl b-D-thiogalactoside (IPTG) was added to a final concentration of 1 mM and cultures were grown for 4 hours at 30° C. One litre of frozen cell pellet was resuspended in 100 ml Buffer A (50 mM Tris [pH 8.0], 300 mM NaCl, 5 mM b-mercaptoethanol, 0.5 mM PMSF, 2 mM benzamidine) with 5 mM imidazole and placed on ice for 30 minutes. Cells were lysed by homogenizing followed by repeated passes through a microfluidizer. Lysate was cleared by centrifugation at 15,000 rpm for 30 minutes. The supernatant was loaded onto a Ni-agarose column (Qiagen), washed with 10 column volumes Buffer A with 10 mM imidazole, and eluted with 10 column volumes Buffer A with 300 mM imidazole. Fractions containing BIR protein were pooled. Final concentrations of 5 mM DTT and 100 mM zinc acetate were added. The pool was concentrated and loaded on a Superdex 75™ (Pharmacia) sizing column. Protein eluted over one column volume into 50 mM Tris 8.0, 300 mM NaCl, 0.5 mM PMSF, 2 mM benzamidine, 5 mM DTT, 50 mM zinc acetate, 1 mM sodium azide. Fractions containing BIR protein were pooled and dialyzed against 4 changes of buffer containing 50 mM Tris (pH 8.0), 120 mM NaCl, 5 mM DTT, 0.5 mM PMSF, 2 mM benzamidine, 50 mM zinc acetate, 1 mM sodium azide. Protein was concentrated and stored at −80° C. for further characterization.
(§3) The apparent Kd values were determined from the EC50 values. […] Samples were read after a 10-minute incubation.

XIAP-BIR3 [2] = molecular target: T2, XIAP-BIR3 (Homo sapiens, UniProt P98170); test: fluorescence polarization competition assay, XIAP-BIR3; format: binding
T2 construct: X-IAP BIR3 (amino acids residues 241-356); made in house; host or cells: Escherichia coli BL21 (DE3)
T2 sequence (P98170 241-356): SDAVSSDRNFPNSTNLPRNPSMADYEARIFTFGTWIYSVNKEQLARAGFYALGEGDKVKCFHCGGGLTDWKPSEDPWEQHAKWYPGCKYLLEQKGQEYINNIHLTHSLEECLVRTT
Experimental: as §1, §2, §3

XIAP-BIR2 [3] = molecular target: T3, XIAP-BIR2 (Homo sapiens, UniProt P98170, C202A/C213G); test: fluorescence polarization competition assay, XIAP-BIR2; format: binding
T3 construct: X-IAP BIR2 (amino acid residues 124-240 with mutations C202A and C213G); made in house; host or cells: Escherichia coli BL21 (DE3)
T3 sequence (P98170 124-240 C202A/C213G): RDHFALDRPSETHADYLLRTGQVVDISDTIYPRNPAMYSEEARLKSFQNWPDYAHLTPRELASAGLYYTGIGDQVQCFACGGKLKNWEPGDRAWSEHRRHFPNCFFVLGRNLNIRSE
Experimental: as §1, §2, §3

ML-IAP-BIR [4] = molecular target: T4, ML-IAP-BIR (human, UniProt Q96CA5 63-179); test: fluorescence polarization competition, SMAC-FAM probe
T4 construct: range 63-179; Expressed in E. coli from pET15b and purified on Ni-agarose; also called BIR domain of ML-IAP
T4 sequence (looked up): T1 sequence (Q96CA5 63-179)

XIAP-BIR3 [5] = molecular target: T5, XIAP-BIR3 (human, UniProt P98170 241-356); test: as above
T5 construct: range 241-356; Expressed in E. coli from pET15b and purified on Ni-agarose
T5 sequence (P98170 241-356 limits assumed): as the sequence (P98170 241-356) above

XIAP-BIR2 [6] = molecular target: T6, XIAP-BIR2 (human, UniProt P98170 124-240); test: as above
T6 construct: range 124-240; The text says C213G, the vector name reads pET15b-XIAPBIR2C202AC218G; Expressed in E. coli from pET15b
T6 sequence (P98170 124-240 C202A/C213G limits assumed): as the sequence (P98170 124-240 C202A/C213G) above

XIAP-BIR3 [7] = molecular target: T5, XIAP-BIR3; test: fluorescence polarization competition, SMAC-FAM or Hid-FAM probe
Source text: (§4) The Kᵢ values for the mutant peptides relative to the Kᵢ of [sequence]

ML-IAP-BIR [8] = molecular target: T4, ML-IAP-BIR; test: as above
Source text: as §4

XIAP-BIR2 [9] = molecular target: T6, XIAP-BIR2; test: as above
Source text: as §4

ML-IAP-BIR [10] = molecular target: T4, ML-IAP-BIR; test: fluorescence polarization competition, SMAC-FAM probe; remark: listed apart in the source
XIAP-BIR3 [11] = molecular target: T5, XIAP-BIR3; test: as above; remark: listed apart in the source
U87MG glioma cells = conditions: athymic mice; Fulda et al. (2002); cited from earlier work
[12] = Table 4, P4 amino acid/phenylethylamine scan, Hid-FAM probe

## COC[C@H](Cc1ccccc1)NC(=O)[C@@H]1CCCN1C(=O)[C@@H](NC(=O)[C@H](C)N)C(C)C [AVPX38]
ML-IAP-BIR [1]; [12]
  Ki: 0.15 µM

## CC(C)[C@H](NC(=O)[C@H](C)N)C(=O)N1CCC[C@H]1C(=O)NCCc1cccc(Cl)c1 [AVPX39]
ML-IAP-BIR [1]; [12]
  Ki: 0.68 µM

## CCOc1ccccc1CCNC(=O)[C@@H]1CCCN1C(=O)[C@@H](NC(=O)[C@H](C)N)C(C)C [AVPX40]
ML-IAP-BIR [1]; [12]
  Ki: 0.3 µM

## AEAVAWKSE
ML-IAP-BIR [1]
  Ki: 9.3 µM
XIAP-BIR3 [2]
  Ki: > 64 µM
XIAP-BIR2 [3]
  Ki: 2.5 µM

## AIPFEEKSE
ML-IAP-BIR [1]
  Ki: 0.44 µM
XIAP-BIR3 [2]
  Ki: 0.59 µM
XIAP-BIR2 [3]
  Ki: 8.7 µM

## ATAVIEKSE
ML-IAP-BIR [1]
  Ki: 4.3 µM
XIAP-BIR3 [2]
  Ki: > 64 µM
XIAP-BIR2 [3]
  Ki: 5.7 µM

## AVPWGLKSE
ML-IAP-BIR [1]
  Ki: 0.42 µM
XIAP-BIR3 [2]
  Ki: 0.54 µM
XIAP-BIR2 [3]
  Ki: 6.9 µM

## AIPFEEKSE
ML-IAP-BIR [4]
  Ki: 0.44 µM
XIAP-BIR3 [5]
  Ki: 0.59 µM
XIAP-BIR2 [6]
  Ki: 8.7 µM

## AVPWIGKSE
ML-IAP-BIR [4]
  Ki: 0.33 µM

## AVP[Phe(4-SO3H)]AQKSE [AVPX2AQKSE]
XIAP-BIR3 [7]
  Ki: 8.5 µM

## AVPXAQKSE (X7 at position 4 is cyclopentylalanine) [AVPX7AQKSE]
ML-IAP-BIR [8]
  Ki: 7.9 µM
XIAP-BIR2 [9]
  Ki: 229 µM

## AVP[Phe(4-I)]AQKSE [AVPX10AQKSE]
ML-IAP-BIR [8]
  Ki: 0.45 µM
XIAP-BIR2 [9]
  Ki: 27.7 µM

## AVGVPWKSE
ML-IAP-BIR [4]
  Ki: 6 µM

## AEAVAWKSE
ML-IAP-BIR [10]
  fold specificity for ML-IAP-BIR relative to XIAP-BIR3: > 10 fold
  fold weaker than the SMAC-based peptide: ~10 fold
XIAP-BIR3 [11]
  fold weaker than the SMAC-based peptide: > 100 fold
ML-IAP-BIR [4]
  Ki: 9.3 µM
XIAP-BIR2 [6]
  Ki: 2.5 µM

## AEAVPWKSE
XIAP-BIR2 [6]
  Ki: 3.6 µM

## AQAVAWKSE
ML-IAP-BIR [4]
  Ki: 7 µM

## ATAVIEKSE
ML-IAP-BIR [10]
  fold specificity for ML-IAP-BIR relative to XIAP-BIR3: > 10 fold
  fold weaker than the SMAC-based peptide: ~10 fold
XIAP-BIR3 [11]
  fold weaker than the SMAC-based peptide: > 100 fold
ML-IAP-BIR [4]
  Ki: 4.3 µM
XIAP-BIR2 [6]
  Ki: 5.7 µM

## AVPWGLKSE
ML-IAP-BIR [4]
  Ki: 0.42 µM
XIAP-BIR3 [5]
  Ki: 0.54 µM
XIAP-BIR2 [6]
  Ki: 6.9 µM

B1: APO2L/TRAIL: pro-apoptotic polypeptide APO2L/TRAIL (Accession Number: TN10_HUMAN) (protein, UniProt P50591 1-281, looked up)
Tumor necrosis factor ligand …: MAMMEVQGGPSLGQTCVLIVIFTVLLQSLCVAVTYVYFTNELKQMQDKYSKSGIACFLKEDDSYWDPNDEESMNSPCWQVKWQLRQLVRKMILRTSEETISTVQEKQQNISPLVRERGPQRVAAHITGTRGRSNTLSSPNSKNEKALGRKINSWESSRSGHSFLSNLHLRNGELVIHEKGFYYIYSQTYFRFQEEIKENTKNDKQMVQYIYKYTSYPDPILLMKSARNSCWSKDAEYGLYSIYQGGIFELKENDRIFVSVTNEHLIDMDHEASFFGAFLVG
U87MG glioma cells
  effect on established tumor: reduction in size of the tumor
